Measured values reported in IntAct's records for PubMed 12799422.

B1: Adapter molecule crk (Homo sapiens), P46108 (parent)
chain: MAGNFDSEERSSWYWGRLSRQEAVALLQGQRHGVFLVRDSSTSPGDYVLSVSENSRVSHYIINSSGPRPPVPPSPAQPPPGVSPSRLRIGDQEFDSLPALLEFYKIHYLDTTTLIEPVSRSRQGSGVILRQEEAEYVRALFDFNGNDEEDLPFKKGDILRIRDKPEEQWWNAEDSEGKRGMIPVPYVEKYRPASASVSALIGGNQEGSHPQPLGGPEPGPYAQPSVNTPLPNLQNGPIYARVIQKRVPNAYDKTALALEVGELVKVTKINVSGQWEGECNGKRGHFPFTHVRLLDQQNPDEDFS
partner: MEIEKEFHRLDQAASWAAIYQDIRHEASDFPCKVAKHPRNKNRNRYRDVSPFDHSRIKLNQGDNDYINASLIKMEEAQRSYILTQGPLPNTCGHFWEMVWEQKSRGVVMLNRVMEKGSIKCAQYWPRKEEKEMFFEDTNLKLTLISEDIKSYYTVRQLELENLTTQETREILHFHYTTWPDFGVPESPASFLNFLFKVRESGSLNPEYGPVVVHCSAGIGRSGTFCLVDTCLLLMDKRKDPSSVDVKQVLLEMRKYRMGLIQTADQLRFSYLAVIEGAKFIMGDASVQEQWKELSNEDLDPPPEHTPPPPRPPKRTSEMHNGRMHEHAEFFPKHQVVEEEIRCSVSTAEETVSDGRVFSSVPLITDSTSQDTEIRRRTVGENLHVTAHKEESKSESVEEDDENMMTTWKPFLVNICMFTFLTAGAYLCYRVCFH
B2: Adapter molecule crk (Homo sapiens), P46108 (parent)
chain: B1 chain
B3: Tyrosine-protein phosphatase non-receptor type 1 (Gallus gallus (Chicken)), O13016 (parent)
chain: B1 partner
B4: Adapter molecule crk (Homo sapiens), P46108 (parent)
chain: B1 chain
partner: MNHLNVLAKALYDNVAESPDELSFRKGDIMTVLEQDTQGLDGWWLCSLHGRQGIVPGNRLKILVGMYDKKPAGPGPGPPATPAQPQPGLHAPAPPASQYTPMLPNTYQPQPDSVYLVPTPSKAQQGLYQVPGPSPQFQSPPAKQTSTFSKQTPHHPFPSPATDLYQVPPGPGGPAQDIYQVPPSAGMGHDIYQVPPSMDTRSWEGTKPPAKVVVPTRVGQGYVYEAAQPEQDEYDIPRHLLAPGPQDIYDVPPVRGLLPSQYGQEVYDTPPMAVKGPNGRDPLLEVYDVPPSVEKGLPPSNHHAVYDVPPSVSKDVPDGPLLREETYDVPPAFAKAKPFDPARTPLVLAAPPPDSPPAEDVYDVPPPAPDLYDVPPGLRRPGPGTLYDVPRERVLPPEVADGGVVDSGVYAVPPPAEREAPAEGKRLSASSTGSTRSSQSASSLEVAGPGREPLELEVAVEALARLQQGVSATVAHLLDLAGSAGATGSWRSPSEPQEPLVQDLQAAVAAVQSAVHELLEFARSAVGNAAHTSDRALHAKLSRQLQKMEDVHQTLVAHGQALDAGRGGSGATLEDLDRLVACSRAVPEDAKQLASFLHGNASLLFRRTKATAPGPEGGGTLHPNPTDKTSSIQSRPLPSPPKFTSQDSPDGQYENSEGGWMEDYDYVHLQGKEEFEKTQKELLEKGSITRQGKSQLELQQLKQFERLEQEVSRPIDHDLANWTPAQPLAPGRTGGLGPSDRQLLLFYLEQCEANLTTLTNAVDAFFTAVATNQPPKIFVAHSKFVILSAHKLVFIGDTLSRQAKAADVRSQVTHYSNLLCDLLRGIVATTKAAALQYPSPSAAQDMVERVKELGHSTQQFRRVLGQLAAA

Variants of: B1
Details: with ptn1_chick PTPN1, O13016

effect of a mutation on the interaction | Variant
decreasing interaction | Y221F

Variants of: B2
Details: with paxi_human PXN

effect of a mutation on the interaction | Variant
increasing interaction | Y221F

Variants of: B3
Details: with crk_human CRK, P46108

effect of a mutation on the interaction | Variant
disrupting interaction | MEIEKEFHRLDQAASWAAIYQDIRHEASDFPCKVAKHPRNKNRNRYRDVSPFDHSRIKLNQGDNDYINASLIKMEEAQRSYILTQGPLPNTCGHFWEMVWEQKSRGVVMLNRVMEKGSIKCAQYWPRKEEKEMFFEDTNLKLTLISEDIKSYYTVRQLELENLTTQETREILHFHYTTWPDFGVPESPASFLNFLFKVRESGSLNPEYGPVVVHSSAGIGRSGTFCLVDTCLLLMDKRKDPSSVDVKQVLLEMRKYRMGLIQTADQLRFSYLAVIEGAKFIMGDASVQEQWKELSNEDLDPPPEHTPPPPRPPKRTSEMHNGRMHEHAEFFPKHQVVEEEIRCSVSTAEETVSDGRVFSSVPLITDSTSQDTEIRRRTVGENLHVTAHKEESKSESVEEDDENMMTTWKPFLVNICMFTFLTAGAYLCYRVCFH [C215S]

Variants of: B4
Details: with bcar1_human BCAR1, P56945

effect of a mutation on the interaction | Variant
increasing interaction | Y221F
